The target in assay [1] is Fcγ fragment of human IgG (human). The assay can be described thus: BLI, Ni-NTA sensor, SpA immobilised, Fc fragment of human IgG in solution. (In general: BLI is a label-free optical method that tracks binding on a fibre tip over time.)
Assay [2] deals with F(ab)2 fragment of human IgG (human).
In assay [3] the target is Fcγ fragment of human IgG (human).

This passage reports Ka and human IgE affinity results from patent US20220323563A1.

Where two headings read alike, the source gives them in different places.

As for “SpA (wild-type protein A, recombinant five IgBDs) (from UniProt P02976 37-327)”, the Ka in assay [1] worked out at 5.17e+07 M⁻¹.
With “SpAQ9,10K/S33E (from UniProt P02976 37-327)”, the Ka in assay [2] worked out at 41.2 M⁻¹; in assay [3], 32.7 M⁻¹.
Taken in the same sequence, the figures for “SpAQ9,10K/S33T (from UniProt P02976 37-327)” were 43.5 M⁻¹ and 39.9 M⁻¹.
In turn, “SpAQ9,10K/G29F/D36,37A (from UniProt P02976 37-327)” gave a human IgE affinity with human IgE of 2.02e-05.
